Reference: patent US20210147847, “APTAMERS FOR TARGETED ACTIVATON OF T CELL-MEDIATED IMMUNITY” (Rheinische Friedrich-Wilhelms-Universitat Bonn, published 2021)

Target: T1, Fc-CTL (mannose receptor CTLD4-7 fused to human IgG1 Fc) (Mus musculus, UniProt Q61830 Q61830:655-1212)
T1 chain: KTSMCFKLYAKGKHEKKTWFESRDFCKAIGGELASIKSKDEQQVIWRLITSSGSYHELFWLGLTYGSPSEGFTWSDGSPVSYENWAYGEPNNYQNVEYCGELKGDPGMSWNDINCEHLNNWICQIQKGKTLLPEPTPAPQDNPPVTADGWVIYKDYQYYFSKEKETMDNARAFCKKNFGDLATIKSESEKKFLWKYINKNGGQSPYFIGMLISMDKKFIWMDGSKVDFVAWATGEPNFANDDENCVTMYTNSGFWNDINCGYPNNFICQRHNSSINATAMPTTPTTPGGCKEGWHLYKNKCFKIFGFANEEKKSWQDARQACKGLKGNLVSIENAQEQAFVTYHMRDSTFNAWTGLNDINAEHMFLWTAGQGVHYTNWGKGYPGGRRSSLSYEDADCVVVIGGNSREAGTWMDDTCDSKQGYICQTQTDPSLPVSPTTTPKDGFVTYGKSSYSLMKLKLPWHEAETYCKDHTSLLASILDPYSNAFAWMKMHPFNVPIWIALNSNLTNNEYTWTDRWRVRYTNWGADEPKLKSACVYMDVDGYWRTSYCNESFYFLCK
Experiment: filter; 500 nM protein, PBS, 1 mM MgCl2, 1 mM CaCl2, BSA, 37 C; more than 2-fold higher than Fc-FN
Settings: tags: human IgG1 Fc fusion; expressed in HEK293T from pIgplus-CTLD4-7; protein G purified; chain copies: 2; label: 5'-32P or 5'-ATTO 647N
Protocol: Representative DNA sequences of each motif family (FIG. 14A-B), namely CTL #5, CTL #9, CTL #6 and CTL #16, and unique sequences CTL #1, #2, #3, #14 and #18 (FIG. 39) were chosen for further analysis. Therefore, their binding ability to Fc-CTL, Fc-FN and the IgG1 Fc protein tag was monitored by radioactive filter retention assay (FIG. 15). DNA was end labeled with ³²P and mixed with the corresponding proteins at a concentration of 500 nM. The mixtures were incubated in selection buffer for 30 minutes at 37° C. and applied on a nitrocellulose membrane. Finally, the amount of bound DNA was detected by autoradiography.

B1: CTL #5 (ssDNA)
DNA: GCTGTGTGACTCCTGCAATGCAATCTAGCTGACAATGGGGGGGAAGAATGTGGGTGGGTGGCAGCTGTATCTTGTCTCC
binding result: binds
